Laboratory results published in patent US12139534B2, “Methods and compositions for decreasing soluble immune receptor CD28” (BIOND BIOLOGICS LTD., priority 2018, dated 2024).

Experiments:
mCD28 [1] = molecular target: T1, mCD28 (Homo sapiens, UniProt P10747); experiment: CD86 blocking FACS on HEK293 cells stably transfected with human CD28; assay type: binding; settings: CD86-Fc 5 μg/mL; antibody 20 μg/mL
T1 construct: expressed in transfected cells
Description: CD86 blocking FACS—0.5×10^6 HEK293 cells stably transfected with human CD28 were incubated with 5 μg/mL CD86-Fc (R&D systems, Cat. No. 141-B2) without or with anti CD28 antibodies (20 μg/mL) for 30 min in room temperature. Cells were washed and taken for secondary binding using anti-human heavy and light chains antibody conjugated to fluorophore at 1:5000 dilution for 20 min on ice.

recombinant mouse CD28 = molecular target: T2, recombinant mouse CD28 (Mus musculus, UniProt P31041); experiment: Direct ELISA on recombinant mouse CD28; assay type: binding
T2 construct: ELISA assay on increasing concentrations of mouse sCD28; purchased R&D 483-CD
T2 sequence (P31041 20-150 limits assumed): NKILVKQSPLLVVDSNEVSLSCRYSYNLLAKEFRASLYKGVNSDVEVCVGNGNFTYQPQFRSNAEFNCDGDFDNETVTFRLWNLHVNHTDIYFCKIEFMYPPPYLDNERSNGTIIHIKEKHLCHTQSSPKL

[2] = tested on: isolated CD3 human T cells; experiment: CD3 T cells stimulation with anti-CD3 OKT3, IFN gamma secretion; assay type: cell-based; settings: anti-CD3 stimulation; CD28.2 2.0 μg/mL, antibodies 0.1-10 μg/mL
Description: T cells stimulation with OKT3—0.1×10^6 isolated CD3 T cells (from healthy donors) were stimulated with indicated amount of anti-CD3 clone OKT3 for 48-72 hr at 37° C. When stated recombinant human CD80-Fc (2 μg/mL, R&D system) was added in soluble form. Antibodies to CD28 or controls were added at the indicated concentration in soluble form.
CD80 is one of the two main ligands for mCD28 along with CD86. The extracellular domain of CD80 fused to an Fc moiety has been used as an immune stimulatory molecule and is under investigation as a cancer therapy. In order to examine the effect of sCD28 on CD80-Fc efficacy, isolated CD3 human T cells were stimulated with plate bound anti-CD3 antibody (OKT3, 2 μg/mL) in the presence of 2 μg/mL soluble recombinant human CD80-Fc.

sCD28 = experiment: Simulated sweeping of soluble CD28 from plasma with antibody coated magnetic beads; parameters: species or system human; settings: cancer patient plasma; 0.125-2 μg antibody on beads; 37° C. 2 hours
Description: Simulated sweeping of soluble CD28 from plasma of cancer patient. Antibodies or recombinant proteins were coated on tosyl-activated magnetic beads (Invitrogen, Cat. No. DY-14203) as described by manufacturer protocol. […] The mixture was incubated in a thermomixer for 2 hr, 1000 RPM at 37° C., followed by removal of the beads using a DynaMag magnet (Invitrogen, Cat. No. 12321D) and the samples were examined using CD28 specific ELISA.
Varying amounts (0.125-2 μg) of antibodies #1 and #2 were loaded onto tosyl-activated magnetic beads according to the manufacturer's protocol (Thermo Fisher Scientific). The loaded beads were then added to plasma samples from a cancer patient, and the mixture was incubated in a thermomixer at 37° C. for 2 hours at 1000 RPM. The beads were isolated and removed from the plasma with a magnet and the amount of sCD28 remaining in the serum was measured by ELISA.
Antibody #1 was further tested on various cancer samples (melanoma, colorectal and ovarian) and compared to three B7 molecules which are known ligands of CD28. About 1.5 μg of antibody #1, CD80, CD86 and ICOSL were each loaded onto tosyl-activated magnetic beads and the beads were mixed with plasma as before. A colorectal sample (FIG. 16C), as well as two melanoma samples (FIG. 16D-E), an ovarian sample (FIG. 16F) and a sample from a healthy donor (FIG. 16G) were all tested.

mCD28 [3] = molecular target: T1, mCD28; experiment: FACS binding to mCD28 on naïve CD3 T cells; settings: antibody 20 μg/mL
Description: Flow Cytometry—Generally, cells were kept on ice during all steps. Prior to staining, 5×10^5 cells were blocked with 50 μg/mL human IgG (Sigma, Cat. No. 14506) in FACS buffer (PBS with 0.1% BSA) for 15 min. Antibodies were used at concentrations recommended by the manufacturer and incubated for 30 min. in the dark. Incubations were done in a volume of 100 μL in 96-well U bottom plates. Cells were washed twice with 200 μL of FACS buffer and transferred to FACS tubes in 150 μL of FACS buffer for analysis. Cells were analyzed on a Gallios Flow Cytometer (Beckman Coulter) using the Kaluza for Gallios Flow Cytometry Acquisition Software.
Lastly, the ability of antibodies #1-3 to bind to mCD28 at all was examined. While it is not essential that a sCD28 antibody not bind mCD28 it is advantageous. Such an antibody could be used for specific detection of the soluble protein, and if used therapeutically would have no effect on the membranal form. Naïve isolated CD3 T cells were evaluated by FACs to assay mCD28 binding. Cells were incubated with antibodies #1-3 (20 μg/mL dark grey histograms) or isotype controls (mIgG, 20 μg/mL, light grey histograms). Binding detection was performed with Alexa Fluor 647-conjugated goat anti mouse secondary antibody.

recombinant human CD28 = molecular target: T3, recombinant human CD28 (Homo sapiens, UniProt P10747); experiment: Direct CD28 ELISA on recombinant human CD28; assay type: binding
T3 construct: recombinant human CD28 lacking the transmembrane and cytoplasmic domains; purchased R&D 342-CD

B1: antibody #2: sCD28 binding (sweeping) antibody; heavy chain SEQ ID NO: 46, light chain SEQ ID NO: 48 (antibody)
heavy: QVQLQQSGAELARPGASVKLSCKASGYTFTSYWMQWIKKRPGQGLEWIGAIYPGDGDTRYTQKFKGKATLTADKSSTTAYMQLSSLASEDSAVYFCARNYRYSSFGYWGQGTLVTVSAAKTTPPSVYPLAPGCGDTTGSSVTLGCLVKGYFPESVTVTWNSGSLSSSVHTFPALLQSGLYTMSSSVTVPSSTWPSQTVTCSVAHPASSTTVDKKLEPSGPISTINPCPPCKECHKCPAPNLEGGPSVFIFPPNIKDVLMISLTPKVTCVVVDVSEDDPDVQISWFVNNVEVHTAQTQTHREDYNSTIRVVSTLPIQHQDWMSGKEFKCKVNNKDLPSPIERTISKIKGLVRAPQVYILPPPAEQLSRKDVSLTCLVVGFNPGDISVEWTSNGHTEENYKDTAPVLDSDGSYFIYSKLNMKTSKWEKTDSFSCNVRHEGLKNYYLKKTISRSPGK
light: DIVMTQSPSSLTVTAGEKVTLSCKSSQSLLNSGNQKNYLTWYQQKPGQPPQLLIYWASTRESGVPDRFTGSGSGTDFTLTISSVQAEDLAVYYCQSDYSYPLTFGAGTKLELKRADAAPTVSIFPPSSEQLTSGGASVVCFLNNFYPKDINVKWKIDGSERQNGVLNSWTDQDSKDSTYSMSSTLTLTKDEYERHNSYTCEATHKTSTSPIVKSFNRNEC
CD86 binding to mCD28 (mCD28 [1]): none of antibody #1 (FIG. 15B), antibody #2 (FIG. 15C), or antibody #3 (FIG. 15D) blocked binding of CD86 to mCD28
binding to mouse CD28 (recombinant mouse CD28): able to bind mouse CD28
IFNγ secretion (agonism) [2]: no effect on IFN secretion
removal of sCD28 from plasma (sCD28): capable of binding and removing sCD28 from plasma
binding to mCD28 on the cell surface (mCD28 [3]): do not bind CD28 on the cell surface
relationship of signal to concentration (recombinant human CD28): a linear relationship to increasing antibody concentrations over the entire range examined
binding to sCD28 (recombinant human CD28; immobilized recombinant human sCD28): much stronger binding to sCD28
